According to paper PMC4784663:

Biological target: Chicken Best1 residues 1–405 (GgBest1) (chicken)
Assay: crystal structure; GgBest1–Fab complex, hanging-drop vapour diffusion; P2_1 form in CYMAL-6 or CYMAL-6-NG, 0–60 mM NaCl, 50 mM sodium acetate pH 4.0, 5% PEG 4000, 20% glycerol; C2 form in DM, 120 mM NaCl, 50 mM Tris pH 8.5, 8.5% PEG 4000, 20% glycerol; sample supplemented with 50 mM GABA

Substance: Chicken Best1 residues 1–405 (GgBest1) (domain or fragment)
- stoichiometry N: 5
